This is an account of results in paper doi:10.1101/2024.09.16.613291.

Read-outs that look alike come from different tables or passages of the source.

Assay [1] addresses PP2A:B55 holoenzyme (PP2Aa:B55:PP2Ac), purified, active, methylated on PP2Ac L309 (UniProt P30153).
Assay [2] has the same target. The source holds these as a separate data set.

UniProt P30153, sequence (P30153 9-589, chain 1 of 3): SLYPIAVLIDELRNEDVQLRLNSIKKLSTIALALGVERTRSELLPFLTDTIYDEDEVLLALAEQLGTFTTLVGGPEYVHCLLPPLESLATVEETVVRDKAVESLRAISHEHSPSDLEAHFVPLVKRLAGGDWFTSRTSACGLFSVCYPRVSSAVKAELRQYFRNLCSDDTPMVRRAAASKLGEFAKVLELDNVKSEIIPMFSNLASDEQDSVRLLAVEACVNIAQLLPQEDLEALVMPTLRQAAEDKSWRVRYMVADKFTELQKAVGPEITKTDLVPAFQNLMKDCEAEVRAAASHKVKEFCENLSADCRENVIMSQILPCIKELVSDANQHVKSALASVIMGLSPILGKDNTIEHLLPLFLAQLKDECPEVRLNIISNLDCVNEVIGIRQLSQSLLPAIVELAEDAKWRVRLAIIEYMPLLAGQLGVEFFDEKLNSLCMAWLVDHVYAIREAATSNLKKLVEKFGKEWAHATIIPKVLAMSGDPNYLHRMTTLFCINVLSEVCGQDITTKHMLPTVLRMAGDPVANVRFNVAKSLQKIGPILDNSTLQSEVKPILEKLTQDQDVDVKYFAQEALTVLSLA
UniProt P30153, sequence (P63151 whole entry, chain 2 of 3, further chain): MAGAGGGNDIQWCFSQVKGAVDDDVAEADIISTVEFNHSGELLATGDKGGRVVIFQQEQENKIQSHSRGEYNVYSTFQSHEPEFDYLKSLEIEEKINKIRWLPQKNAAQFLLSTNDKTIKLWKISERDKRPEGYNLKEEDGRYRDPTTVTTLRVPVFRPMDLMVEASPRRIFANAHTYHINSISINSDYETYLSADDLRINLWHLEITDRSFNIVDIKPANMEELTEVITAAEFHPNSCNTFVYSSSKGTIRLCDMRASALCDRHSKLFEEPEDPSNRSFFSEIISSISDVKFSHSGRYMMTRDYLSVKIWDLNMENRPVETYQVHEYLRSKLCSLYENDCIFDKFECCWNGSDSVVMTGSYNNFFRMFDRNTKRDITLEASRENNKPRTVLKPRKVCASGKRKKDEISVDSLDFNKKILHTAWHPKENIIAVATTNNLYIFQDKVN
UniProt P30153, sequence (P67775 whole entry, chain 3 of 3, further chain): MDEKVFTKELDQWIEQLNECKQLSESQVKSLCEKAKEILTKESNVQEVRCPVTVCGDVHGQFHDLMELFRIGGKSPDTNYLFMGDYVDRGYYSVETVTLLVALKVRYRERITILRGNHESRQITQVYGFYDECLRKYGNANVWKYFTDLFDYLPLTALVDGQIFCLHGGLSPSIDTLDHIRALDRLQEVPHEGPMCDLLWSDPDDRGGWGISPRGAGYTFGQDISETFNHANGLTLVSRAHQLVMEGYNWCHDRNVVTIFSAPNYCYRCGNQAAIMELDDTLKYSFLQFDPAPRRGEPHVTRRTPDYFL

Molecule RSSNDYTSQMYSAKPYAHILSVPVSETAYPGQTQYQTLQQTQPYAVYEE (domain or fragment) [Eya3 PP2A:B55 interaction domain (aa 62-108) with C-terminal EE] showed an IC50 of inhibition of PP2A:B55 (1 nM) dephosphorylation of DiFMUP (50 uM) in assay [1] of 1100 nM.

B1: p107 interdomain region (residues 612-687) (domain or fragment)
chain: MPMSPLMHPRVKEVRTDSGSLRRDMQPLSPISVHERYSSPTAGSAKRRLFGEDPPKEMLMDKIITEGTKLKIAPSS
As to B1, the IC50 of inhibition of PP2A:B55 (1 nM) dephosphorylation of DiFMUP (50 uM) in assay [2] came to 245 nM.
